Laboratory results taken from PMC3168688 (American journal of medical genetics. Part B, …, 2011).

Target: T1, c-Myc-tagged SLC9A9 C-terminal with both mutations (V512G and K534R) (rat, UniProt D4A7H1 494-644, V512G | K534R)
T1 sequence (looked up): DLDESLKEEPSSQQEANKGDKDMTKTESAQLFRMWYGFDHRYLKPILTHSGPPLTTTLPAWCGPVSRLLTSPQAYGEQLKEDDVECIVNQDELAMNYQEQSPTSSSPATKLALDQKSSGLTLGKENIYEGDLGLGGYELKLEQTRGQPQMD
Experiment: co-IP

fold change of CHP co-precipitated against wild-type SLC9A9 C-terminal: ~2 fold
B1: Flag-tagged calcineurin homologous protein (CHP) (natural protein, rat, UniProt P61023 1-195, looked up)
chain: MGSRASTLLRDEELEEIKKETGFSHSQITRLYSRFTSLDKGENGTLSREDFQRIPELAINPLGDRIINAFFSEGEDQVNFRGFMRTLAHFRPIEDNEKSKDVNGPEPLNSRSNKLHFAFRLYDLDKDDKISRDELLQVLRMMVGVNISDEQLGSIADRTIQEADQDGDSAISFTEFVKVLEKVDVEQKMSIRFLH
